{"source": "patent US20130196915", "about": "“AFFINITY HYDROGELS FOR CONTROLLED PROTEIN RELEASE” (published 2013)", "binders": {"B1": {"name": "61-nt anti-PDGF-BB aptamer (ssDNA)", "DNA": "AAAAAAAAAAACAGGCTACGGCACGTAGAGCATCACCATGATCCTGTGACTTGAGCAAAAT", "modifications": "5'-NH2"}}, "key": {"PDGF-BB [1]": {"target": "T1, PDGF-BB (Homo sapiens, UniProt P01127 P01127:82-190)", "T1 sequence (P01127 82-190, one chain of several)": "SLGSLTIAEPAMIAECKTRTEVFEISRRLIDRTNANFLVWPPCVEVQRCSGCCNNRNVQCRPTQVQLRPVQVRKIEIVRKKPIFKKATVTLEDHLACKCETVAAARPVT", "experiment": "SPR; virtually same as S1", "conditions": "tags: R&D Systems; amine-coupled to SPR chip; chain copies: 2 (inferred, homodimer)", "description": "(§1) The affinities of the aptamers were measured with surface plasmon resonance (SPR) spectrometry (SR7000DC, Reichert Analytical Instrument, Depew, N.Y.). Carboxyl group-functionalized sensor chips were purchased from the Reichert Analytical Instrument. The chips were initially activated with 0.2 M EDC/0.1 M NHS for 10 min After the activation step, PDGF-BB (20 μg/ml in 25 mM Na₂HPO₄ at pH 8.5) was flowed over the activated sensor chip for protein immobilization. Before the test, the system was equilibrated with the running buffer for 30 min. The running buffer was made of PBS buffer (pH 7.4) containing 0.05% Tween 20. During the test, the aptamer solution was flowed over the sensor chip at a flow rate of 30 μL/minute for 5 minutes. Subsequently, the flowing solution was switched to the running buffer for molecular dissociation. After each test, the sensor chip was regenerated by flowing 1 M NaCl in the channel for 2 minutes and then washed with the running buffer. To determine the dissociation constants, a series of aptamer solutions were prepared with the concentration ranging from 3.13 to 200 nM. The data were processed with the Scrubber 2.0 software (BioLogic Software, Australia). The responses from the reference channel were subtracted from the responses from analyte channel before data analysis to minimize the effects of reflective index changes, nonspecific binding, and instrument drift. The dissociation constant (KD) was determined by fitting the data to a simple biomolecular “1:1 binding” model."}, "PDGF-BB [2]": {"target": "T1, PDGF-BB", "experiment": "SPR; COs did not significantly accelerate dissociation; koff only in figure", "conditions": "tags: R&D Systems; amine-coupled to SPR chip; chain copies: 2 (inferred, homodimer); three-stem junction"}, "PDGF-BB [3]": {"target": "T1, PDGF-BB", "experiment": "SPR; PBS with 500 nM scrambled CO during dissociation", "conditions": "tags: R&D Systems; amine-coupled to SPR chip; chain copies: 2 (inferred, homodimer)", "description": "The molecular interaction between the PDGF-BB and its aptamer was studied using the SPR spectrometry (SR7000DC; Reichert Analytical Instrument; Depew, N.Y.). A carboxyl group-functionalized sensor chip (Reichert Analytical Instrument; Depew, N.Y.) was activated with NHS and EDC for PDGF-BB immobilization. The binding solution of 100 nM of either anti-PDGF-BB aptamers or scrambled aptamers was flowed over the biochip for 5 minutes (30 μL/min) for the analysis of molecular association. Subsequently, the washing solution (PBS, PBS containing 500 nM of CO, or PBS containing 500 nM of S—CO) was introduced over the biochip for another five minutes (30 μL/min) for the analysis of molecular dissociation. The biochip was regenerated by flowing 1 M of NaCl in the channel for two minutes (100 μL/min) followed by the PBS. The dissociation rate constant (koff) was obtained by fitting the binding profiles with the Scrubber 2.0 software as provided by the manufacturer.\nBecause real applications were involve not only aptamers and COs, but also target proteins, surface plasmon resonance (SPR) was used to directly examine the intermolecular hybridization-mediated protein dissociation (FIG. 11)."}, "PDGF-BB [4]": {"target": "T1, PDGF-BB", "experiment": "SPR; PBS, 0.05% Tween 20", "conditions": "tags: R&D Systems, amine-coupled to SPR chip, chain copies: 2 (inferred, homodimer)", "description": "The molecular interaction between PDGF-BB and the aptamers were studied by SPR spectrometry (SR7000DC, Reichert Analytical Instrument, Depew, N.Y.). PDGF-BB was immobilized onto a sensor chip via amide synthesis. An aqueous solution of NHS (0.0115 g/ml) and EDC (0.038 g/ml) was flowed over the sensor chip at a flow rate of 30 μL/min. After the EDC/NHS-mediated activation of the biochip surface for 10 min, 10 μg/mL of PDGF-BB solution (pH 8.5) was flowed over the chip surface for protein immobilization. Prior to the molecular recognition analysis, the sensor chip was equilibrated for 30 min with a phosphate-buffered saline (PBS) solution containing 0 05% Tween 20. During the binding analysis, 500 nM of binding solution containing either anti-PDGF-BB aptamer or its control was flowed over the biochip at 30 μL/min. The biochip was regenerated with 1 M of NaCl. The binding analysis was repeated twice to confirm the reproducibility. The equilibrium dissociation constant (KD) was calculated with direct curve fitting of the sensorgrams using the software provided by the manufacturer.\nPolyacrylamide gel and anti-platelet-derived growth factor-BB (PDGF-BB) aptamer were used as a model system. […] The binding functionality was evaluated with surface plasmon resonance (SPR) analysis, which directly provides information on the binding affinity."}, "PDGF-BB [5]": {"target": "T1, PDGF-BB", "experiment": "SPR; PBS pH 7.4, 0.05% Tween 20; equilibrium analysis", "conditions": "tags: R&D Systems; amine-coupled to SPR chip; chain copies: 2 (inferred, homodimer)", "description": "as §1\nThe interaction of a molecular pair was determined by not only molecular association but also molecular dissociation. The dissociation rate constant divided by the association rate constant is defined as the equilibrium dissociation constant (KD). Thus, a series of aptamer solutions were prepared and the aptamer-protein interactions were characterized by calculating the dissociation constants (FIG. 19). The concentration-dependent responses were processed to calculate KD using an equilibrium analysis. […]"}, "PDGF-BB [6]": {"target": "T1, PDGF-BB", "experiment": "SPR; reference for normalized response; PBS pH 7.4, 0.05% Tween 20", "conditions": "tags: R&D Systems; amine-coupled to SPR chip; chain copies: 2 (inferred, homodimer); three-stem junction with 10-nt 5' tail", "description": "The affinities of the aptamers were measured with surface plasmon resonance (SPR) spectrometry (SR7000DC, Reichert Analytical Instrument, Depew, N.Y.). Carboxyl group-functionalized sensor chips were purchased from the Reichert Analytical Instrument. The chips were initially activated with 0.2 M EDC/0.1 M NHS for 10 min After the activation step, PDGF-BB (20 μg/ml in 25 mM Na₂HPO₄ at pH 8.5) was flowed over the activated sensor chip for protein immobilization. Before the test, the system was equilibrated with the running buffer for 30 min. The running buffer was made of PBS buffer (pH 7.4) containing 0.05% Tween 20. During the test, the aptamer solution was flowed over the sensor chip at a flow rate of 30 μL/minute for 5 minutes. Subsequently, the flowing solution was switched to the running buffer for molecular dissociation. After each test, the sensor chip was regenerated by flowing 1 M NaCl in the channel for 2 minutes and then washed with the running buffer. To determine the dissociation constants, a series of aptamer solutions were prepared with the concentration ranging from 3.13 to 200 nM. The data were processed with the Scrubber 2.0 software (BioLogic Software, Australia). […] The dissociation constant (KD) was determined by fitting the data to a simple biomolecular “1:1 binding” model."}}}
{"binder": "CCACGGTCTAACAGGCTACGGCACGTAGAGCATCACCATGATCCTG (ssDNA)", "note": "[S3]", "values": [{"measurement": "binding result", "setting": "PDGF-BB [1]", "result": "binds"}]}
{"binder": "TCGCACATGCACAGGCTACGGCACGTAGAGCATCACCATGATCCTG (ssDNA)", "note": "[S6]", "values": [{"measurement": "binding result", "setting": "PDGF-BB [1]", "result": "binds"}]}
{"binder": "ACAGGCTACGGCACGTAGAGCATCACCATGATCCTG (ssDNA)", "note": "[36-nt truncated aptamer]", "values": [{"measurement": "binding result", "setting": "PDGF-BB [2]", "result": "binds"}]}
{"binder": "B1", "values": [{"measurement": "koff", "setting": "PDGF-BB [3]", "result": 0.00065, "unit": "s⁻¹"}]}
{"binder": "CGCCATTCAGACAGGCTACGGCACGTAGAGCATCACCATGATCCTG (ssDNA)", "note": "[S4]", "values": [{"measurement": "binding result", "setting": "PDGF-BB [1]", "result": "binds"}]}
{"binder": "GCGATACTCCACAGCTGACGGCACGGTAAGCATCACCATGATGTCC (ssDNA, 5'-Acrydite)", "note": "[control (lower-affinity) aptamer]", "values": [{"measurement": "Kd", "setting": "PDGF-BB [4]", "result": 220, "unit": "nM"}]}
{"binder": "CATGAGCCCTACAGGCTACGGCACGTAGAGCATCACCATGATCCTG (ssDNA)", "note": "[S10]", "values": [{"measurement": "binding result", "setting": "PDGF-BB [1]", "result": "binds"}]}
{"binder": "GCGATACTCCACAGGCTACGGCACGTAGAGCATCACCATGATCCTG (ssDNA, 5'-Acrydite)", "note": "[anti-PDGF-BB aptamer (higher affinity, 46-nt)]", "values": [{"measurement": "Kd", "setting": "PDGF-BB [4]; three-stem junction with 10-nt 5' tail", "result": 25, "unit": "nM"}]}
{"binder": "GCGATACTCCACAGGCTACGGCACGTAGAGCATCACCATGATCTCA (ssDNA)", "note": "[M3]", "values": [{"measurement": "Kd", "setting": "PDGF-BB [5]", "result": 354, "unit": "nM"}]}
{"binder": "GCGATACTCCACAGGCTACGGCACGTAGAGCATCACCATGATCCTG (ssDNA)", "note": "[S1]", "values": [{"measurement": "binding result", "setting": "PDGF-BB [6]", "result": "binds"}]}
{"binder": "GCGATACTCCACAGGCTACGGCACGTAGAGCATCACCATGATCCTA (ssDNA)", "note": "[M1]", "values": [{"measurement": "Kd", "setting": "PDGF-BB [5]", "result": 27.6, "unit": "nM"}]}
{"binder": "GCGATACTCCACAGGCTACGGCACGTAGAGCATCACCATGATCCCA (ssDNA)", "note": "[M2]", "values": [{"measurement": "Kd", "setting": "PDGF-BB [5]", "result": 109, "unit": "nM"}]}
{"binder": "GCAACTGCTCACAGGCTACGGCACGTAGAGCATCACCATGATCCTG (ssDNA)", "note": "[S9]", "values": [{"measurement": "binding result", "setting": "PDGF-BB [1]", "result": "binds"}]}
{"binder": "CAATTCCGCGACAGGCTACGGCACGTAGAGCATCACCATGATCCTG (ssDNA)", "note": "[S2]", "values": [{"measurement": "binding result", "setting": "PDGF-BB [1]", "result": "binds"}]}
